Experimental data published in US20240350583A1, “COMPOSITION FOR PREVENTING OR TREATING FIBROTIC DISEASES, COMPRISING HAPLN1” (Chung Ang University Industry Academic Cooperation …, priority 2021, published 2024).
Entries after “also recorded” stand apart in the source; their conditions may differ.

What was measured:
Assay type in all cases: cell-based
[1] = tested on: human kidney renal tubule cell (Human Kidney 2, HK-2); assay: Fibrosis prevention in HK-2 cells (simultaneous TGFβ1 and drug), αSMA western blot; settings: rhHAPLN1 50 ng/ml simultaneously with TGF-β (5 ng/ml), 24 hours
Description: (1) Human kidney renal tubule cells (HK-2) were seeded (1.0×10^5 cells/well) in a 6-well plate according to the experimental scheme of FIG. 6A and incubated in RPMI 1640 Medium (11875-093, Gibco) including 10% FBS for 24 hours in an incubator at 37° C. 5% CO2.
(2) The plates were then washed several times with PBS and each well of the plate was simultaneously treated with TGF31 (5 ng/ml) and the composition of the present disclosure (rhHAPLN1 protein content of 0, 5, 10, 20, and 50 ng/ml) and pirfenidone 0.2 mg/mL (200 μg/mL) and incubated for 24 hours.
(3) Each sample was then washed several times with ice-cold PBS, treated with radioimmunoprecipitation assay (RIPA) lysis and extraction buffer (Thermo Scientific) including protease and phosphatase inhibitors, scraped with a scraper, and transferred to an E-tube.
(4) By centrifugation (12000 rpm, 20 minutes, 4° C.), only the supernatant was obtained, and bicinchoninic acid (BCA) assay was performed to obtain quantitative protein values.
(5) After quantification using the obtained quantitative value, cooking was performed at 100° C. for 3 minutes and then stored in a −20° C. refrigerator.
(6) Using a 4% to 15% precast acrylamide PAGE gel, proteins were loaded at 10 μg per lane and run (80V-20 minutes, 120V-1 hour 30 minutes). […]
(§1) (11) After washing three times with TBST for 10 minutes each, the samples were detected by Chemidoc.

[2] = tested on: human kidney renal tubule cell (Human Kidney 2, HK-2); assay: Anti-fibrotic efficacy in HK-2 cells (drug after TGFβ1), αSMA western blot
Description: (1) Human kidney renal tubule cells (HK-2) were seeded (2.8×10^5 cells/well) in a […] according to the experimental scheme of FIG. 7A and incubated in RPMI 1640 Medium (11875-093, Gibco) including 10% FBS for 24 hours in an incubator at 37° C. 5% CO2.
(2) Afterwards, the plates were washed several times with PBS, and each well of the plate was treated with TGFβ1 (5 ng/ml) and incubated for 24 hours.
(3) Subsequently, the plates were then treated with the composition of the present disclosure (rhHAPLN1 protein content of 0, 5, 10, 20, and 50 ng/ml) and pirfenidone 0.2 mg/mL (200 μg/mL), respectively, and incubated for 48 hours.
(4) Each sample was then washed several times with ice-cold PBS, treated with radioimmunoprecipitation assay (RIPA) lysis and extraction buffer (Thermo Scientific) including protease and phosphatase inhibitors, scraped with a scraper, and transferred to an E-tube.
(§2) (5) By centrifugation (12000 rpm, 20 minutes, 4° C.), only the supernatant was obtained, and BCA assay was performed to obtain quantitative protein values.
(6) After quantification using the obtained quantitative value, cooking was performed at 100° C. for 3 minutes and then stored in a −20° C. refrigerator. […]
as §1

[3] = tested on: renal proximal tubule epithelial cell (RPTEC); assay: Age-induced fibrosis of RPTEC (passage 11), αSMA western blot; settings: aged cells (P11); rhHAPLN1 100 ng/ml; 72 hours
Description: (1) Renal proximal tubule epithelial cell (RPTEC) of the 3rd passage culture and 10th passage culture were seeded (5.0×10^5 cells) in 60Φ culture dishes and cultured in complete renal epithelial cell medium (ATCC PCS-400-030+ATCC PCS-400-040) in an incubator at 37° C. 5% CO2 for 24 hours.
(2) Subsequently, the cells were then treated with the composition of the present disclosure (rhHAPLN1 protein content of 0, 10, and 100 ng/ml, respectively) and cultured for an additional 72 hours.
(4) After washing three times with ice-cold PBS, each well was treated with 300 μl of RIPA lysis and extraction buffer including protease inhibitors and phosphatase inhibitors, scraped with a scraper to harvest cells, and transferred to an E-tube.
as §2
(6) Using a 4% to 15% precast acrylamide PAGE gel, proteins were loaded at 20 μg per lane and run (80V-20 minutes, 120V-1 hour 30 minutes).
(7) Western blot was performed on the samples. Here, anti-αSMA Ab (Abcam, ab7817), anti-GAPDH Ab (Santa Cruz, sc-32233) were used as primary antibodies and HRP-conjugated anti-mouse IgG Ab (CST, #7076) as secondary antibodies.

[4] = tested on: SAEMyoF system (small airway epithelial cells and adult fibroblasts); assay: BioMAP Fibrosis panel, SAEMyoF system (pulmonary fibrosis model), ELISA
Text: The anti-fibrotic action effect of the composition of the present disclosure on pulmonary fibrosis and kidney fibrosis was verified by examining the expression level of various fibrosis markers using the BioMAP Fibrosis Panel (provided by Eurofins discovery).
BioMAP Fibrosis panel consists of three models, SAEMyoF system (co-culturing small airway epithelial cells and adult fibroblasts), REMyOF system (co-culture of renal proximal tubule epithelial cells and adult fibroblasts), and MyOF system (differentiated lung myofibroblasts). Here, the SAEMyoF system represents interstitial lung diseases (IDL), including pulmonary fibrotic diseases such as idiopathic pulmonary fibrosis (IPF), and the REMyOF system represents kidney fibrosis disease, which is associated with end-stage renal failure. However, experiments were conducted to confirm the effect of the MyoF system only on myofibroblasts.
(1) Each primary cell was used by pooling cells from multiple donors (n=3 to 6), and cells were first cultured in 96-well plates to confluence before adding a peripheral blood mononuclear cell (PBMC).
(2) Subsequently, the cells were then each treated with the composition of the present disclosure (rhHAPLN1 protein content of 0, 3.7, 11, and 33 ng/ml) at different concentrations and cultured for 1 hour.
(3) The plates were then treated with TNF and TGFβ1 and incubated for 48 hours.
(4) Direct enzyme-linked immunosorbent assay (ELISA) was performed on the expression levels of various biomarkers.
Each quantitative value was compared as a relative fold change compared to the vehicle control. Statistical processing was performed using unpaired t-test, significant differences vs vehicle control, *p<0.05, **p<0.01, and ***p<0.001.

B1: rhHAPLN1: recombinant human HAPLN1 protein of SEQ ID NO: 1 produced in CHO-K1 cells, stabilized in acetic acid buffer, sucrose, PS80, pH 5.0 (protein, listed as Homo sapiens)
chain: MKSLLLLVLISICWADHLSDNYTLDHDRAIHIQAENGPHLLVEAEQAKVFSHRGGNVTLPCKFYRDPTAFGSGIHKIRIKWTKLTSDYLKEVDVFVSMGYHKKTYGGYQGRVFLKGGSDSDASLVITDLTLEDYGRYKCEVIEGLEDDTVVVALDLQGVVFPYFPRLGRYNLNFHEAQQACLDQDAVIASFDQLYDAWRGGLDWCNAGWLSDGSVQYPITKPREPCGGQNTVPGVRNYGFWDKDKSRYDVFCFTSNFNGRFYYLIHPTKLTYDEAVQACLNDGAQIAKVGQIFAAWKILGYDRCDAGWLADGSVRYPISRPRRRCSPTEAAVRFVGFPDKKHKLYGVYCFRAYN
fibrosis prevention (αSMA) compared to pirfenidone at 200 μg/mL (FIG. 6B, FIG. 6C) [1]: superior fibrosis prevention action compared to pirfenidone; also recorded: significantly higher | fibrosis prevention efficacy (αSMA) compared to composition that does not include rhHAPLN1 protein (FIG. 6C) [1]: superior fibrosis prevention efficacy | anti-fibrotic efficacy (αSMA) compared to pirfenidone 0.2 mg/ml ([2]; rhHAPLN1 50 ng/ml): almost equivalent to that of pirfenidone | anti-fibrotic efficacy (αSMA) compared to composition that does not include rhHAPLN1 protein (FIG. 7B, FIG. 7C) ([2]; rhHAPLN1 10 to 50 ng/ml, 48 hours after 24 hours TGFβ1): superior anti-fibrotic action; also recorded: excellent anti-fibrotic efficacy | decrease of expression amount of αSMA protein compared to composition without rhHAPLN1 (FIG. 9B) [3]: about ⅓ | expression level of collagen I compared to vehicle control (FIG. 11A) ([4]; regardless of rhHAPLN1 content (3.7, 11, 33 ng/ml)): consistently significantly reduced | expression level of αSMA, fold change compared to vehicle control (FIG. 11A) ([4]; regardless of rhHAPLN1 content (3.7, 11, 33 ng/ml), TNF and TGFβ1 48 hours): ≤ 0.9 fold | expression level of collagen I, fold change compared to vehicle control (FIG. 11A) ([4]; rhHAPLN1 11 ng/ml): ≤ 0.8 fold
